The values that follow come from article doi:10.1101/238154 (bioRxiv, 2017).

Experiment [1] deals with N-terminally TAMRA-labeled monoubiquitin (UniProt P0CG47 1-76, TAMRA on the N-terminus). The experiment is described as follows: fluorescence polarisation.
Another experiment deals with ubiquitin (untagged) (UniProt P0CG47 1-76). The experiment can be described thus: ITC. On the technique in general: ITC needs no label: the signal is the heat of the interaction.

B1: USP4(8-925) wild-type (enzyme)
chain: RERPDAETQKSELGPLMRTTLQRGAQWYLIDSRWFKQWKKYVGFDSWDMYNVGEHNLFPGPIDNSGLFSDPESQTLKEHLIDELDYVLVPTEAWNKLLNWYGCVEGQQPIVRKVVEHGLFVKHCKVEVYLLELKLCENSDPTNVLSCHFSKADTIATIEKEMRKLFNIPAERETRLWNKYMSNTYEQLSKLDNTVQDAGLYQGQVLVIEPQNEDGTWPRQTLQSKSSTAPSRNFTTSPKSSASPYSSVSASLIANGDSTSTCGMHSSGVSRGGSGFSASYNCQEPPSSHIQPGLCGLGNLGNTCFMNSALQCLSNTAPLTDYFLKDEYEAEINRDNPLGMKGEIAEAYAELIKQMWSGRDAHVAPRMFKTQVGRFAPQFSGYQQQDSQELLAFLLDGLHEDLNRVKKKPYLELKDANGRPDAVVAKEAWENHRLRNDSVIVDTFHGLFKSTLVCPECAKVSVTFDPFCYLTLPLPLKKDRVMEVFLVPADPHCRPTQYRVTVPLMGAVSDLCEALSRLSGIAAENMVVADVYNHRFHKIFQMDEGLNHIMPRDDIFVYEVCSTSVDGSECVTLPVYFRERKSRPSSTSSASALYGQPLLLSVPKHKLTLESLYQAVCDRISRYVKQPLPDEFGSSPLEPGACNGSRNSCEGEDEEEMEHQEEGKEQLSETEGSGEDEPGNDPSETTQKKIKGQPCPKRLFTFSLVNSYGTADINSLAADGKLLKLNSRSTLAMDWDSETRRLYYDEQESEAYEKHVSMLQPQKKKKTTVALRDCIELFTTMETLGEHDPWYCPNCKKHQQATKKFDLWSLPKILVVHLKRFSYNRYWRDKLDTVVEFPIRGLNMSEFVCNLSARPYVYDLIAVSNHYGAMGVGHYTAYAKNKLNGKWYYFDDSNVSLASEDQIVTKAAYVLFYQRRDD
For B1, the binding result in experiment [1] is “binds”.

B2: USP4(8-925) C311A mutant (enzyme)
chain: RERPDAETQKSELGPLMRTTLQRGAQWYLIDSRWFKQWKKYVGFDSWDMYNVGEHNLFPGPIDNSGLFSDPESQTLKEHLIDELDYVLVPTEAWNKLLNWYGCVEGQQPIVRKVVEHGLFVKHCKVEVYLLELKLCENSDPTNVLSCHFSKADTIATIEKEMRKLFNIPAERETRLWNKYMSNTYEQLSKLDNTVQDAGLYQGQVLVIEPQNEDGTWPRQTLQSKSSTAPSRNFTTSPKSSASPYSSVSASLIANGDSTSTCGMHSSGVSRGGSGFSASYNCQEPPSSHIQPGLCGLGNLGNTAFMNSALQCLSNTAPLTDYFLKDEYEAEINRDNPLGMKGEIAEAYAELIKQMWSGRDAHVAPRMFKTQVGRFAPQFSGYQQQDSQELLAFLLDGLHEDLNRVKKKPYLELKDANGRPDAVVAKEAWENHRLRNDSVIVDTFHGLFKSTLVCPECAKVSVTFDPFCYLTLPLPLKKDRVMEVFLVPADPHCRPTQYRVTVPLMGAVSDLCEALSRLSGIAAENMVVADVYNHRFHKIFQMDEGLNHIMPRDDIFVYEVCSTSVDGSECVTLPVYFRERKSRPSSTSSASALYGQPLLLSVPKHKLTLESLYQAVCDRISRYVKQPLPDEFGSSPLEPGACNGSRNSCEGEDEEEMEHQEEGKEQLSETEGSGEDEPGNDPSETTQKKIKGQPCPKRLFTFSLVNSYGTADINSLAADGKLLKLNSRSTLAMDWDSETRRLYYDEQESEAYEKHVSMLQPQKKKKTTVALRDCIELFTTMETLGEHDPWYCPNCKKHQQATKKFDLWSLPKILVVHLKRFSYNRYWRDKLDTVVEFPIRGLNMSEFVCNLSARPYVYDLIAVSNHYGAMGVGHYTAYAKNKLNGKWYYFDDSNVSLASEDQIVTKAAYVLFYQRRDD
The term Kd denotes the concentration at which binding is half-saturated. A higher Kd goes with weaker binding. In the case of B2, binding in experiment [1] was characterised by a dissociation constant (Kd) of 0.6 ± 0.17 nM.

B3: SAGA DUB module containing Ubp8^C146A (complex)
chain 1: MSICPHIQQVFQNEKSKDGVLKTCNAARYILNHSVPKEKFLNTMKCGTCHEINSGATFMCLQCGFCGCWNHSHFLSHSKQIGHIFGINSNNGLLFCFKCEDYIGNIDLINDAILAKYWDDVCTKTMVPSMERRDGLSGLINMGSTAFMSSILQCLIHNPYFIRHSMSQIHSNNCKVRSPDKCFSCALDKIVHELYGALNTKQASSSSTSTNRQTGFIYLLTCAWKINQNLAGYSQQDAHEFWQFIINQIHQSYVLDLPNAKEVSRANNKQCECIVHTVFEGSLESSIVCPGCQNNSKTTIDPFLDLSLDIKDKKKLYECLDSFHKKEQLKDFNYHCGECNSTQDAIKQLGIHKLPSVLVLQLKRFEHLLNGSNRKLDDFIEFPTYLNMKNYCSTKEKDKHSENGKVPDIIYELIGIVSHKGTVNEGHYIAFCKISGGQWFKFNDSMVSSISQEEVLKEQAYLLFYTIRQVN
chain 2: MTEETITIDSISNGILNNLLTTLIQDIVARETTQQQLLKTRYPDLRSYYFDPNGSLDINGLQKQQESSQYIHCENCGRDVSANRLAAHLQRCLSRGARR
chain 3: MTMDTAQLKSQIQQYLVESGNYELISNELKARLLQEGWVDKVKDLTKSEMNINESTNFTQILSTVEPKALEMVSDSTRETVLKQIREFLEEIVDTQ
chain 4: MRSGDAEIKGIKPKVIEEYSLSQGSGPSNDSWKSLMSSAKDTPLQYDHMNRESLKKYFNPNAQLIEDPLDKPIQYRVCEKCGKPLALTAIVDHLEN
In the experiment with ubiquitin (untagged), B3 came in with a Kd of 430 mM. This counts as millimolar.
